For data set [1] the following is noted: humans; cited from earlier work.
Data set [2] in a line: Tissue distribution of [^3H]-ghrelin after i.v. bolus in DFP-pretreated mice. The conditions noted are these: as E30.
The conditions of data set [3]: rats; cited from earlier work.
For the next data set, the target named is human BChE (Homo sapiens, UniProt P06276). The data set is described as follows: Inhibition of BChE-catalysed ghrelin hydrolysis by BChE-specific inhibitors. Type of data set: biochemical. The conditions noted are these: parallel assays, modest concentrations of inhibitor.
Sequence of human BChE (P06276 29-602): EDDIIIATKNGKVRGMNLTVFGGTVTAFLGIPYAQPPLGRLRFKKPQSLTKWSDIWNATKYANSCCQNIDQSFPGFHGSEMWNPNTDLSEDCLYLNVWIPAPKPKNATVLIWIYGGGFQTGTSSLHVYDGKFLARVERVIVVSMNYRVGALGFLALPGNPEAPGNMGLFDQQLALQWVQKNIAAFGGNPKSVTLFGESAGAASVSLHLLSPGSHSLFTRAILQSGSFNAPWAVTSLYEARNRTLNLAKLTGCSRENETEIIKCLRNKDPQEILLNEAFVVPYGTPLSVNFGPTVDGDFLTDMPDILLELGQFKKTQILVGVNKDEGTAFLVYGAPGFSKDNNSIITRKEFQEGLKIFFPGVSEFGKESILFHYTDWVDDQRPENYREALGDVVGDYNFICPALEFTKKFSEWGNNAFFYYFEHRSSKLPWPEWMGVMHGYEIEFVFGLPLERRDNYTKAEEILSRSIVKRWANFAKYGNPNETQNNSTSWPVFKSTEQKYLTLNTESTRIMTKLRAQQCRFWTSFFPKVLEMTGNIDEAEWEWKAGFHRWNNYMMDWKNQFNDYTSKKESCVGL

This is an account of results in paper PMC4669970 (Biochemical pharmacology, 2015).

Read-outs that look alike come from different tables or passages of the source. No end group written: not given here.

As for “ghrelin (GSS((3H)n‑octanoyl)FLSPEHQRVQQRKESKKPPAKLQPR; also: tritium label on the octanoyl group (tracer form); UniProt Q9UBU3 24-51, looked up)”, the circulating half-life in data set [1] was 8 to 13 min. Moreover, in data set [2], the “time of peak concentration in liver” value is 6 min, the “time of peak concentration in pancreas” value worked out at 12 min and the “time of peak concentration in spleen” value was 12 min. Besides, in data set [3], the circulating half-life is on record as 8 min.
Regarding `CCN(CC)C(C)CN1c2ccccc2Sc2ccccc21` (stereo not drawn) [ethopropazine], the “effect on BChE ghrelin hydrolysis reactions” value on human BChE is given as “stopped those reactions completely”.
